In article PMC10714925:

Tested on: Clp-GST (Xanthomonas oryzae pv. oryzae PXO99A)
Experiment: MST
Details: MST: 50 mM Tris pH 7.5, 150 mM NaCl, 10 mM MgCl2, 0.05% Tween 20, 25 C, buffer not given

Question: Which Kd does the source give for xanfur promoter, FAM-labeled here?
Answer: The Kd was 0.687 nM.
